Source: article doi:10.1101/183855

Target: DEAD-box RNA helicase DDX6 (human (endogenous in 293T)) (UniProt P26196)
Assay: proximity ligation

Sequence of UniProt P26196 (P26196 whole entry): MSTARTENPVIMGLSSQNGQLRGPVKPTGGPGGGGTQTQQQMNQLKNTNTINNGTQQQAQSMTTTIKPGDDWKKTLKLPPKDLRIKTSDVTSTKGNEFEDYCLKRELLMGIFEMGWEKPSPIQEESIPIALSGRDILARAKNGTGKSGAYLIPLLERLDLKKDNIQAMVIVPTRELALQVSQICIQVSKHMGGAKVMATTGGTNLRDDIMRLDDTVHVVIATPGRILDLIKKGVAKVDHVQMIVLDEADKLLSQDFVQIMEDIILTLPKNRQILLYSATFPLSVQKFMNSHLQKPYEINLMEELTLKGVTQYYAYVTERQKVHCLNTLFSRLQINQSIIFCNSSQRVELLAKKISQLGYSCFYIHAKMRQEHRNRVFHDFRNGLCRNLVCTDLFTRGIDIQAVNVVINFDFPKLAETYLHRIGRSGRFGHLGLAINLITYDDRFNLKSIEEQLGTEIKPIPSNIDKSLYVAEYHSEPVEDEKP

Substance	PLA spots per Z stack image (PLA spots per Z stack image)	PLA spots per cell (PLA spots per cell)
G2A Gag (HIV-1 Gag with glycine 2 changed to alanine, expressed from LAI provirus) (natural protein)	56	50
HIV-1 Gag, wild type (expressed from LAI provirus) (natural protein)	–	50
